The record followed here is IntAct's records for PubMed 25814554.

The chains are these.
B1: Pleckstrin homology domain-containing family S member 1 (Homo sapiens), Q5SXH7-1 (parent)
chain: MAGGKQFTFSYENEVCKQDYFIKSPPSQLFSSVTSWKKRFFILSKAGEKSFSLSYYKDHHHRGSIEIDQNSSVEVGISSQEKMQSVQKMFKCHPDEVMSIRTTNREYFLIGHDREKIKDWVSFMSSFRQDIKATQQNTEEELSLGNKRTLFYSSPLLGPSSTSEAVGSSSPRNGLQDKHLMEQSSPGFRQTHLQDLSEATQDVKEENHYLTPRSVLLELDNIIASSDSGESIETDGPDQVSGRIECHYEPMESYFFKETSHESVDSSKEEPQTLPETQDGDLHLQEQGSGIDWCLSPADVEAQTTNDQKGSASLTVVQLSILINNIPDESQVEKLNVFLSPPDVINYLALTEATGRICVSQWEGPPRLGCIFCHGDHLLAVNDLKPQSLEEVSLFLTRSIQKEKLKLTIGRIPNSETFHAASCMCPSKCQSAAPSQLDKPRLNRAPKRSPAIKKSQQKGARE
B2: Tetraspanin-2 (Homo sapiens), O60636 (parent)
chain: MGRFRGGLRCIKYLLLGFNLLFWLAGSAVIAFGLWFRFGGAIKELSSEDKSPEYFYVGLYVLVGAGALMMAVGFFGCCGAMRESQCVLGSFFTCLLVIFAAEVTTGVFAFIGKGVAIRHVQTMYEEAYNDYLKDRGKGNGTLITFHSTFQCCGKESSEQVQPTCPKELLGHKNCIDEIETIISVKLQLIGIVGIGIAGLTIFGMIFSMVLCCAIRNSRDVI

In one test the parent is B1. To be noted: with p55g_human PIK3R3, Q92569.
For D68F, the “effect of a mutation on the interaction” value is recorded as “disrupting interaction”.

In a further test the parent is B2. The note with it: with grb2_human GRB2, P62993.
Sequence of grb2_human GRB2, P62993 (P62993 whole entry, looked up): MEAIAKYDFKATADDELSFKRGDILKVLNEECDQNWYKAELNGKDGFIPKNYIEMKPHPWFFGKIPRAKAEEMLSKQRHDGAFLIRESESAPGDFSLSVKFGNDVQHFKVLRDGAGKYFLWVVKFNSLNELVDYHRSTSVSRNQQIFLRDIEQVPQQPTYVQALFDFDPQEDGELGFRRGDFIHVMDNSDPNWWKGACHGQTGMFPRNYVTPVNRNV
Regarding Y124F, the “effect of a mutation on the interaction” value is listed as “disrupting interaction”.

In a further test the parent is B2. The note with it: with p55g_human PIK3R3, Q92569.
With Y124F, the “effect of a mutation on the interaction” value is “disrupting interaction”.
